# B1: Tab020 (YP223, rabbitIgG1) (antibody, V domains shown)
# VH: QEQLEESGGDLVQPEGSLTLTCKASGLDFSSSYWICWVRQAPGKGLEWIGCRHTFTANTWSASWVNGRFTISRSTSLGTVDLKMTSLTAADTATYFCARDESNNDGWDFKLWGPGTLVTVSS
# VL: AYDMTQTPASVSAAVGGTVTIKCQASQSISNYLAWYQQKPGQPPKLLIYQASTLAPGVSSRFKGSGSGTEFTLTISGVECADAATYYCQQGYTSSNVENVFGGGTGVVVGD
# Columns and labels:
# [1] = target: human MSLN full-length protein (NCBI: AAH09272.1) on stably transfected CHO-K1 or HEK293T cells (human) (UniProt Q13421); assay: FACS on CHO-K1-hMSLN-2C8 cells; antibody […]
# [2] = target: human MSLN full-length protein (NCBI: AAH09272.1) on stably transfected CHO-K1 or HEK293T cells (human) (UniProt Q13421); assay: FACS on CHO-K1-hMSLN-2C8 cells; antibody 4 nM
# [3] = target: human MSLN full-length protein (NCBI: AAH09272.1) on stably transfected CHO-K1 or HEK293T cells (human) (UniProt Q13421); assay: FACS on CHO-K1-hMSLN-2C8 cells; antibody 20 nM
# [4] = target: human MSLN full-length protein (NCBI: AAH09272.1) on stably transfected CHO-K1 or HEK293T cells (human) (UniProt Q13421); assay: FACS on CHO-K1-hMSLN-2C8 cells; antibody 0.8 nM
# [5] = target: human MSLN full-length protein (NCBI: AAH09272.1) on stably transfected CHO-K1 or HEK293T cells (human) (UniProt Q13421); assay: FACS on CHO-K1-hMSLN-2C8 cells; antibody 100 nM
# [6] = target: monkey MSLN full-length protein (NCBI: XP_028696439.1) on HEK293T cells (monkey); assay: FACS on HEK293T-monkey MSLN cells; antibody […]
# [7] = target: monkey MSLN full-length protein (NCBI: XP_028696439.1) on HEK293T cells (monkey); assay: FACS on HEK293T-monkey MSLN cells; antibody 4 nM
# [8] = target: human MSLN full-length protein (NCBI: AAH09272.1) on stably transfected CHO-K1 or HEK293T cells (human) (UniProt Q13421); assay: FACS on CHO-K1-hMSLN-2C8 cells; antibody 0.032 nM
# [9] = target: monkey MSLN full-length protein (NCBI: XP_028696439.1) on HEK293T cells (monkey); assay: FACS on HEK293T-monkey MSLN cells; antibody 20 nM
# [10] = target: human MSLN full-length protein (NCBI: AAH09272.1) on stably transfected CHO-K1 or HEK293T cells (human) (UniProt Q13421); assay: FACS on CHO-K1-hMSLN-2C8 cells; antibody 0.0064 nM
# [11] = target: monkey MSLN full-length protein (NCBI: XP_028696439.1) on HEK293T cells (monkey); assay: FACS on HEK293T-monkey MSLN cells; antibody 0.8 nM
# [12] = target: monkey MSLN full-length protein (NCBI: XP_028696439.1) on HEK293T cells (monkey); assay: FACS on HEK293T-monkey MSLN cells; antibody 100 nM
# [13] = target: human MSLN full-length protein (NCBI: AAH09272.1) on stably transfected CHO-K1 or HEK293T cells (human) (UniProt Q13421); assay: FACS on CHO-K1-hMSLN-2C8 cells; antibody 0.00128 nM
# [14] = target: monkey MSLN full-length protein (NCBI: XP_028696439.1) on HEK293T cells (monkey); assay: FACS on HEK293T-monkey MSLN cells; antibody 0.032 nM
# [15] = target: monkey MSLN full-length protein (NCBI: XP_028696439.1) on HEK293T cells (monkey); assay: FACS on HEK293T-monkey MSLN cells; antibody 0.0064 nM
# [16] = target: monkey MSLN full-length protein (NCBI: XP_028696439.1) on HEK293T cells (monkey); assay: FACS on HEK293T-monkey MSLN cells; antibody 0.00128 nM
# [17] = target: human MSLN full-length protein (NCBI: AAH09272.1) on stably transfected CHO-K1 or HEK293T cells (human) (UniProt Q13421); assay: FACS on HEK293T-hMSLN-B8 cells; secondary antibody control 1
# [18] = target: human MSLN full-length protein (NCBI: AAH09272.1) on stably transfected CHO-K1 or HEK293T cells (human) (UniProt Q13421); assay: FACS on CHO-K1-hMSLN-2C5 cells; secondary antibody control 37
# [19] = target: human MSLN full-length protein (NCBI: AAH09272.1) on stably transfected CHO-K1 or HEK293T cells (human) (UniProt Q13421); assay: FACS on CHO-K1-hMSLN-2C8 cells; secondary antibody control 37
# [20] = target: human MSLN full-length protein (NCBI: AAH09272.1) on stably transfected CHO-K1 or HEK293T cells (human) (UniProt Q13421); assay: FACS on HEK293T-hMSLN-2A4 cells; secondary antibody control 1
# [21] = target: human MSLN full-length protein (NCBI: AAH09272.1) on stably transfected CHO-K1 or HEK293T cells (human) (UniProt Q13421); assay: FACS on HEK293T-hMSLN-2A7 cells; secondary antibody control 1
# [22] = target: human MSLN full-length protein (NCBI: AAH09272.1) on stably transfected CHO-K1 or HEK293T cells (human) (UniProt Q13421); assay: FACS on CHO-K1-hMSLN-2D11 cells; secondary antibody control 37
# [23] = target: human MSLN full-length protein (NCBI: AAH09272.1) on stably transfected CHO-K1 or HEK293T cells (human) (UniProt Q13421); assay: FACS on CHO-K1-hMSLN clone 2C8, overlay with secondary antibody only
# [24] = target: human MSLN full-length protein (NCBI: AAH09272.1) on stably transfected CHO-K1 or HEK293T cells (human) (UniProt Q13421); assay: FACS on CHO-K1-hMSLN clone 2C5, overlay with secondary antibody only
# [25] = target: human MSLN full-length protein (NCBI: AAH09272.1) on stably transfected CHO-K1 or HEK293T cells (human) (UniProt Q13421); assay: FACS on CHO-K1-hMSLN clone 2D11, overlay with secondary antibody only
binder,measurement,setting,value
B1,FACS fluorescence intensity,[1],593
same,FACS fluorescence intensity,[2],9000
same,FACS fluorescence intensity,[3],15400
same,FACS fluorescence intensity,[4],2290
same,FACS fluorescence intensity,[5],15300
same,FACS fluorescence intensity,[6],86
same,FACS fluorescence intensity,[7],90
same,FACS fluorescence intensity,[8],206
same,FACS fluorescence intensity,[9],100
same,FACS fluorescence intensity,[10],96
same,FACS fluorescence intensity,[11],88
same,FACS fluorescence intensity,[12],126
same,FACS fluorescence intensity,[13],75
same,FACS fluorescence intensity,[14],85
same,FACS fluorescence intensity,[15],85
same,FACS fluorescence intensity,[16],85
same,Mean fluorescence intensity of cells,[17],24400
same,Mean fluorescence intensity of cells,[18],206000
same,Mean fluorescence intensity of cells,[19],234000
same,Mean fluorescence intensity of cells,[20],15400
same,Mean fluorescence intensity of cells,[21],6580
same,Mean fluorescence intensity of cells,[22],218000
same,percent of cells in the APC-A+ gate,[23],99.4%
same,percent of cells in the APC-A+ gate,[24],100%
same,percent of cells in the APC-A+ gate,[25],100%

# Source: US20250250357A1
